Reference: patent US20180021429A1, “ANTICANCER AGENTS OR ANTIMETASTATIC AGENTS USING FSTL1 AND COMBINATION DRUG THEREOF” (PHARMA FOODS INTERNATIONAL CO., LTD., priority 2015, published 2018)

Columns and labels:
Type in all cases: cell-based
[1] = test system: human pancreatic cancer cell line Panc1; assay: Action on Panc1 under FSTL1 stimulation (Example 26); conditions: Panc1 stimulated with FSTL1 for 3 days, antibody 5 μg/ml; FIG. 114B
Text: (§1) Specifically, the influence of the anti-FSTL1 antibody on proliferative capacity and invasive capacity was studied using various human tumor cells, regardless of the presence or absence of the expression of Snail or FSTL1. […] After culture for 3 days, the number of cells per culture system was counted to evaluate the proliferative capacity of the cells. […] Then, the number of cells that permeated the membranes was counted under a microscope to evaluate the invasive capacity of the cells.
Next, in order to examine how surrounding tumor cells were changed in a cancer microenvironment by receiving FSTL1 produced by Snail/FSTL1-expressing cells, and how the anti-FSTL1 antibody acts thereon, a human pancreatic cancer cell line Panc1 confirmed to express Snail or FSTL1 only slightly was stimulated with FSTL1 for 3 days. The anti-FSTL1 antibody (#6-55, 5 μg/ml) or a control antibody (aHema, 5 μg/ml) was added to this culture system, and subsequent change in cell function was analyzed in the same way as in the preceding paragraph. […]

[2] = test system: Panc1, Panc1-snail+, MIAPaCa, MDA231, Hs294T; assay: Proliferative capacity and invasive capacity of various human tumor cells; conditions: particularly in highly metastatic tumor cell line highly expressing Snail
Text: as §1, §1

mouse bone marrow cells = assay: Ability of FSTL1-induced MSCs to differentiate into adipocytes (Examples 14, 16); conditions: Example 16; antibody 20.0-2.5 μg/ml; FIG. 104B
Experimental: The antibody clone (#6-55, #7, #10, #13, or #22) was evaluated for its activity by the same testing method as in Example 13. #6-55 was set as a positive control for activity. […] Mouse bone marrow cells were supplemented with FSTL1 and the predetermined concentration of each antibody and cultured for 8 days. 5×10^4 cells/well were separated from each culture system and evaluated for the ability to differentiate into adipocytes using an adipocyte differentiation reagent included in “Mesenchymal Stem Cell Functional Identification Kit (R&D Systems, Inc., Cat. No. SC010)”. For the evaluation method, the cells were supplemented with the adipocyte differentiation reagent and cultured for 8 days. Then, adipocytes per culture system were counted under a microscope for evaluation. […]
In the same way as in Example 15, mouse bone marrow cells were supplemented with FSTL1 and the predetermined concentration of each antibody and cultured for 8 days. 5×10^4 cells/well were separated from each culture system and evaluated for the ability to differentiate into adipocytes using an adipocyte differentiation reagent included in “Mesenchymal Stem Cell Functional Identification Kit (R&D Systems, Inc., Cat. No. SC010)”. […] Then, adipocytes per culture system were counted under a microscope for evaluation (FIG. 104B). […]

B1: #6-55: chicken-mouse chimeric anti-FSTL1 antibody clone; variable regions SEQ ID NO: 783 (light), 785 (heavy) (antibody, V domains shown)
VH: AVTLDESGGGLQTPGGALSLVCKGSGFTFTSVTMQWVRQAPGKGLEWVASVCSGSSTYYAPAVKGRATISRDNGQSTVRLQLSNLRPEDTGTYYCAKIAGRARWSCTSAAYNIDAWGHGTEVIVSS
VL: ASTQPSSVSAIPGETVKITCSGGGNNYGWYQQRSPGSAPVTVIYYNDNRPSNIPSRFSGSTSGSTSTLTITGVQADDEAIYYCGSWDSNTDSGIFGAGTTLTVL
modifications: mouse constant regions
B1 was tested, and the cell growth [1] was “reduced”, the “enhancement of invasive capacity by FSTL1” value [1] was “canceled” and the invasive capacity ([2]; Matrigel-coated transwell chamber, 4 hours) was “strongly suppressed”. The proliferative capacity ([2]; antibody 5 μg/ml, 3 days) was “strongly suppressed” and the “cells differentiating into adipocytes” value (mouse bone marrow cells) was “decreased in number by the addition of #6-55 in a dose-dependent manner”.
